Results reported in publication PMC10054347.

B1: oligonucleotide 1, Alexa488 (ssDNA)
DNA: ATAAATTTAAGACATGAAAAAATAAATTTTTATTTTTTTACGTTTTTATT
B2: oligonucleotide 2, Alexa488 (ssDNA)
DNA: CGGTCCTCAGATGTGATTCCATCCTTCTTTTGAGCAAACTACCTGTATAACGTAAGTCCGTGTGTGCGAA
B3:  (ssDNA)
DNA: B1 DNA
B4:  (ssDNA)
DNA: B2 DNA

Experiments:
[1] = target: Chymotrypsin (CTRC) (bovine (pancreas), UniProt P00766 1-245); assay: bead-based affinity chromatography, fluorescence; PBS pH 7.4, room temperature, 1 h; EMSA 500 nM oligo + 200 µM protein, 5% agarose; bead assay with bead-immobilized protein, Alexa488 oligo 1-60 nM (lysozyme) o
[2] = target: Lysozyme C (Gallus gallus (Chicken), UniProt P00698 19-147); assay: as above
[3] = target: Cytochrome c (equine (heart), UniProt P00004 2-105); assay: as above
[4] = target: Chymotrypsin (Bos taurus (Bovine), UniProt P00766;P00766;P00766 1-13;16-146;149-245); assay: pulldown; PBS pH 7.4, room temperature
[5] = target: BSA (Bos taurus (Bovine), UniProt P02769 25-607); assay: EMSA; PBS pH 7.4, room temperature
Chain of BSA (P02769 25-607): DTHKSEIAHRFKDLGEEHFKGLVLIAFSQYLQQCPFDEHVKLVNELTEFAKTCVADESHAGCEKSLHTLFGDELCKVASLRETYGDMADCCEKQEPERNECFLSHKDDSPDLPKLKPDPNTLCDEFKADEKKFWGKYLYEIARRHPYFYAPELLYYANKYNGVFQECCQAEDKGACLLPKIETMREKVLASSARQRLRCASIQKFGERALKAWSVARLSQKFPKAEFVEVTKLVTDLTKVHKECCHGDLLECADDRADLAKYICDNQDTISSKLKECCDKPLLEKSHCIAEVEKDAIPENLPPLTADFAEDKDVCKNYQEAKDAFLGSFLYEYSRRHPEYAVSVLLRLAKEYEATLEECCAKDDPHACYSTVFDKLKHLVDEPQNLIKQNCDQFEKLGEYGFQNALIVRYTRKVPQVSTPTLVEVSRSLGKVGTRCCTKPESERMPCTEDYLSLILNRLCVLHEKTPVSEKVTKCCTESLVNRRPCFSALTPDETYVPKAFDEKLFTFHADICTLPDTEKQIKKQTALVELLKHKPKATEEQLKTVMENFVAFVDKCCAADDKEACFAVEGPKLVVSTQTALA

Chain of Cytochrome c (P00004 2-105): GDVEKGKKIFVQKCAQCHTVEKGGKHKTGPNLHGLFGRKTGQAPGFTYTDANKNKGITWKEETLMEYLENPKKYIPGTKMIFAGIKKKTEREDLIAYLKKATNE
Chain of Lysozyme C (P00698 19-147): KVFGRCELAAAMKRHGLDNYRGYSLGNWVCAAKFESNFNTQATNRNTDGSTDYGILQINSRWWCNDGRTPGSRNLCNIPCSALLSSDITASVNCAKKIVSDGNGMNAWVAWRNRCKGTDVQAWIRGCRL

Binder	Kd [1]	Kd [2]	Kd [3]	Kd [4]	binding result [5]
B1	1400 nM	14 nM	1400 nM		
B2	3300 nM	8 nM	1100 nM		
B3				1400 nM	no binding
B4				3300 nM	no binding
